What all share (conditions): both partners purified
Test [1] deals with T1, recombinant SARS-CoV-2 S1 protein (Kactus Biosystems) (SARS-CoV-2, original wild type …, UniProt P0DTC2). The test is described as follows: SPR.
The target in test [2] is SARS-CoV-2 S1-hFc protein (SARS-CoV-2). The test is described as follows: ELISA.
Test [3] has as its target SARS-CoV-2 S1-His protein (SARS-CoV-2). The test is described as follows: ELISA.
Test [4] concerns the target T1, recombinant SARS-CoV-2 S1 protein …. In words: SPR. This is another data set of the same source.

B1: 2B11 monoclonal antibody (full-length human IgG1) (antibody, V domains shown)
VH: EVQLVESGGGLVQPGGSLRLSCAASEITVSSNYMNWVRQAPGKGLEWVSVIYSGGTTYYADSVKGRFTISRDNSENTLYLQMNSLRAEDTAVYYCARDLMEVGGMDVWGQGTTVTVSS
VL: LPVLTQPPSASGTPGQRVTISCSGSSSNVENDNVNWFQQQVPGSTPKLVIYNDRLRPSGVPDRFSGSKSGTSAYLAISGLQSEDEADYYCVAWDASLQSYVFGTGTKVTVL
Take B1: the equilibrium dissociation constant (Kd) in test [1] was determined as 4.67 nM; in test [4] it was 4.76 nM. Also, in test [2], the IC50 was 2.79 nM. In test [3], the midpoint of the response, the EC50, lay at 0.051 nM.
